Test results published in patent publication US20260008817A1, “CYCLIC PEPTIDE OR SALT THEREOF, AND USES THEREOF” (FUJIFILM Corporation, priority 2023, published 2026).
Positions of bridges follow the written chain, without caps; N, C: chain ends. Non-standard residues stand in square brackets, D forms with d. No end group written: not given here. COCH2 = acetyl group that carries the bridge; NMeL = CN[C@@H](CC(C)C)C(=O)O; hLeu = CC(C)CC[C@H](N)C(=O)O; hCys = N[C@@H](CCS)C(=O)O; Orn = NCCC[C@H](N)C(=O)O; Dab = NCC[C@H](N)C(=O)O; Dap = NC[C@H](N)C(=O)O

Columns and labels:
[1] = Reductive stability of cyclic peptide (DTT treatment, LC); type: physicochemical; conditions: residual rate after DTT treatment, room temperature, 1 hour
Experimental: The molecular stability of the cyclic peptide was evaluated by analyzing an aqueous solution of the cyclic peptide treated with a reducing agent by liquid chromatography (LC).
The reducing agent treatment was performed under the following conditions based on the concentration of glutathione contained in the cells. 25 μL of a 0.2 mg/mL cyclic peptide aqueous solution was prepared, 58.8 μL of a 12.6 mmol/L DTT aqueous solution was added to the aqueous solution, and the mixture was incubated at room temperature for 1 hour to obtain an aqueous solution of the cyclic peptide treated with a reducing agent. The DTT aqueous solution was used by diluting a 1 mol/L (+−)-dithiothreitol (DTT) solution (FUJIFILM Wako Pure Chemical Corporation, 044-33871) with water. The total area of all the peaks in LC/MS of the cyclic peptide before the reducing agent treatment was set to 100%, and the proportion of the total area of all the peaks in LC/MS of the aqueous solution of the cyclic peptide treated with the reducing agent was determined to calculate the residual rate of the cyclic peptide, and the molecular stability was evaluated according to the following evaluation criteria. The evaluation result preferably satisfies the evaluation criteria A, B, or C.
• A: The residual rate of cyclic peptide is 90% or more. • B: The residual rate of the cyclic peptide is 70% or more and less than 90% • C: The residual rate of the cyclic peptide is 50% or more and less than 70% • D: The residual rate of the cyclic peptide is less than 50%
The LC used for the evaluation of molecular stability was set to the following conditions. • LC device: Prominence series (pump, column oven, autosampler, detector) (manufactured by Shimadzu Corporation) • Detector: photodiode array detector (SPD-M20A), measurement wavelength of 280 nm • Column: TSKgel ODS-100V, inner diameter of 4.6 mm×length of 150 mm, particle diameter of 5 μm (manufactured by Tosoh Corporation) • Eluent A: solution containing 0.1% trifluoroacetic acid as solute, and solvent is 100% water • Eluent B: solution containing 0.1% trifluoroacetic acid as solute, and solvent is 100% acetonitrile • Flow rate: 1.0 mL/min • Injection amount: 25 μL • Gradient: 20% to 50%: Eluent B (0 to 15 minutes), 100%: Eluent B (15 minutes) • Column temperature: 40° C.

[2] = molecular target: T1, Recombinant Human FGFR1 alpha (IIIc) Fc Chimera Protein (Homo sapiens, UniProt P11362); assay: SPR binding affinity of chemically synthesized cyclic peptide to immobilized FGFR; conditions: SPR binding amount at 10 nmol/L cyclic peptide, 25° C.; chemically synthesized product
T1 construct: purchased R&D systems 658-FR-050
Experimental: The binding affinity of the cyclic peptide to FGFR was evaluated using a surface plasmon resonance (SPR) method.
The binding affinity of the chemically synthesized cyclic peptide to FGFR was evaluated by the following procedure.
A CM5 sensor chip (Cytiva, 29149603) was set in Biacore-T200 (manufactured by Cytiva) which is a surface plasmon resonance device, and an HBS-EP buffer (Cytiva, BR100826) was added as a running buffer at a flow rate of 10 μL/min to equilibrate the flow channel. Next, 70 μL of a mixed aqueous solution of 0.2 mol/L 1-(3-dimethylaminopropyl)-3-ethylcarbodiimide (EDC) and 0.05 mol/L N-hydroxysuccinimide (NHS) was added to activate the sensor chip. Then, Recombinant Human FGFR1 alpha (IIIc) Fc Chimera Protein CF (R&D systems, 658-FR-050) prepared at 50 nmol/L in an Acetate 4.5 buffer (Cytiva, BR100350) was added thereto to perform immobilization at about 5000 RU. Thereafter, the blocking treatment was performed with an ethanolamine solution. In addition, in another flow channel of the same sensor chip, blocking treatment was performed immediately after activation without immobilizing FGFR.
A cyclic peptide diluted to 10 nmol/L using HBS-EP was added to each flow channel of the FGFR-immobilized sensor chip produced above at 25° C. for 10 minutes, then HBS-EP was allowed to flow as a running buffer for 30 minutes, and the binding of the cyclic peptide to FGFR was measured. Thereafter, a regeneration treatment of removing the bound cyclic peptide was performed by repeating the flow of a regeneration liquid in which sodium chloride powder was dissolved in Glysine 1.5 (Cytiva, BR100354) to a final concentration of 0.15 mol/L for 1 minute in each flow channel twice. The binding amount of the cyclic peptide was evaluated from the difference between the measured value of Biacore-T200 in the flow channel in which FGFR was immobilized and the measured value of Biacore-T200 in the flow channel in which FGFR was not immobilised, in a case where a 10 nmol/L cyclic peptide was allowed to flow.
The binding amount of the cyclic peptide evaluated above was normalized to the binding amount of the cyclic peptide molecules per one molecule of FGFR using the molecular weights of the cyclic peptide and FGFR, and the binding affinity to FGFR was evaluated according to the following evaluation criteria. The evaluation result preferably satisfies the evaluation criteria A, B, or C.
• A: The binding amount is 0.7 molecules of the cyclic peptide/one molecule of FGFR or more. • B: The binding amount is 0.5 molecules of the cyclic peptide/one molecule of FGFR or more and less than 0.7 molecules of cyclic peptide/one molecule of FGFR. • C: The binding amount is 0.1 molecules of cyclic peptide/one molecule of FGFR or more and less than 0.5 molecules of cyclic peptide/one molecule of FGFR. • D: The binding amount is less than 0.1 molecules of the cyclic peptide/one molecule of FGFR.

T1 sequence (P11362 with tags, fused parts or gaps limits assumed): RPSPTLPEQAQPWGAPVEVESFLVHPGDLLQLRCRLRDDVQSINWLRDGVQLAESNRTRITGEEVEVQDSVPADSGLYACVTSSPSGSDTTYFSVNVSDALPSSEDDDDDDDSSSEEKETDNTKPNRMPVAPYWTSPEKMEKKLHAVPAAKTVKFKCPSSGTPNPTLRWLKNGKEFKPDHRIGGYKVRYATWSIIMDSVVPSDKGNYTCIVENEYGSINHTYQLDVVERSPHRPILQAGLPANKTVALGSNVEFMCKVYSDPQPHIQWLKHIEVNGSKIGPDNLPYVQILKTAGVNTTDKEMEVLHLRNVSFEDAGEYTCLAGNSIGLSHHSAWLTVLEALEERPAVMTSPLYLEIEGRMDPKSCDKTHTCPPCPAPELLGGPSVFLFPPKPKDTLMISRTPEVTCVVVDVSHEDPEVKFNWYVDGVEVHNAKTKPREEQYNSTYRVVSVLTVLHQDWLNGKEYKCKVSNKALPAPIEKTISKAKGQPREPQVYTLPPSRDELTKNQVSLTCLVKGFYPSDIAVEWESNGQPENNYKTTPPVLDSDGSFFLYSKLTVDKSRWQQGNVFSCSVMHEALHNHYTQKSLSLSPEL

## 336 (ACVWTFDRHAQEISQALHCVKKK; disulfide 2-19 (inferred)) [compound 336]
[1]
  Evaluation result of reductive stability: D (The residual rate of the cyclic peptide is less than 50%)
[2]
  Evaluation result of binding affinity to FGFR: D (The binding amount is less than 0.1 molecules of the cyclic peptide/one molecule of FGFR.)

## 331 (AK(COCH2)VWTFDRHAQEISQALH[hCys]VKKK; thioether 2-19) [compound 331]
[1]
  Evaluation result of reductive stability: A (The residual rate of cyclic peptide is 90% or more.)
[2]
  Evaluation result of binding affinity to FGFR: B (The binding amount is 0.5 molecules of the cyclic peptide/one molecule of FGFR or more and less than 0.7 molecules of cyclic peptide/one molecule of FGFR.)

## 327 (A[hCys]VWTFDRHAQEISQALHK(COCH2)VKKK; thioether 2-19) [compound 327]
[1]
  Evaluation result of reductive stability: A (The residual rate of cyclic peptide is 90% or more.)
[2]
  Evaluation result of binding affinity to FGFR: A (The binding amount is 0.7 molecules of the cyclic peptide/one molecule of FGFR or more.)

## 340 (F[Orn](COCH2)VYTFDAHAHS[hLeu]DAALN[hCys]IKKK; thioether 2-19) [compound 340]
[1]
  Evaluation result of reductive stability: B (The residual rate of the cyclic peptide is 70% or more and less than 90%)
[2]
  Evaluation result of binding affinity to FGFR: B (The binding amount is 0.5 molecules of the cyclic peptide/one molecule of FGFR or more and less than 0.7 molecules of cyclic peptide/one molecule of FGFR.)

## 330 (A[hCys]VWTFDRHAQEISQALH[Dap](COCH2)VKKK; thioether 2-19) [compound 330]
[1]
  Evaluation result of reductive stability: A (The residual rate of cyclic peptide is 90% or more.)
[2]
  Evaluation result of binding affinity to FGFR: A (The binding amount is 0.7 molecules of the cyclic peptide/one molecule of FGFR or more.)

## 337 (F[Orn](COCH2)VYTFDAHAHSLDAALN[hCys]IKKK; thioether 2-19) [compound 337]
[1]
  Evaluation result of reductive stability: B (The residual rate of the cyclic peptide is 70% or more and less than 90%)
[2]
  Evaluation result of binding affinity to FGFR: C (The binding amount is 0.1 molecules of cyclic peptide/one molecule of FGFR or more and less than 0.5 molecules of cyclic peptide/one molecule of FGFR.)

## 333 (AXVWTFDRHAQEISQALHXVKKK; not fully specified; Description of Artificial Sequence: Cyclic peptide) [compound 333]
[1]
  Evaluation result of reductive stability: A (The residual rate of cyclic peptide is 90% or more.)
[2]
  Evaluation result of binding affinity to FGFR: A (The binding amount is 0.7 molecules of the cyclic peptide/one molecule of FGFR or more.)

## 329 (A[hCys]VWTFDRHAQEISQALH[Dab](COCH2)VKKK; thioether 2-19) [compound 329]
[1]
  Evaluation result of reductive stability: A (The residual rate of cyclic peptide is 90% or more.)
[2]
  Evaluation result of binding affinity to FGFR: B (The binding amount is 0.5 molecules of the cyclic peptide/one molecule of FGFR or more and less than 0.7 molecules of cyclic peptide/one molecule of FGFR.)

## 334 (AXVWTFDRHAQEISQALHXVKKK; Description of Artificial Sequence: Cyclic peptide) [compound 334]
[1]
  Evaluation result of reductive stability: A (The residual rate of cyclic peptide is 90% or more.)
[2]
  Evaluation result of binding affinity to FGFR: A (The binding amount is 0.7 molecules of the cyclic peptide/one molecule of FGFR or more.)

## 341 ([Orn](COCH2)VYTFDAHAHSLDAALN[hCys]IKKK; thioether 1-18) [compound 341]
[1]
  Evaluation result of reductive stability: B (The residual rate of the cyclic peptide is 70% or more and less than 90%)
[2]
  Evaluation result of binding affinity to FGFR: C (The binding amount is 0.1 molecules of cyclic peptide/one molecule of FGFR or more and less than 0.5 molecules of cyclic peptide/one molecule of FGFR.)

## 338 (FXVYTFDAHAHSLDAALNXIKKK; Description of Artificial Sequence: Cyclic peptide) [compound 338]
[1]
  Evaluation result of reductive stability: A (The residual rate of cyclic peptide is 90% or more.)
[2]
  Evaluation result of binding affinity to FGFR: C (The binding amount is 0.1 molecules of cyclic peptide/one molecule of FGFR or more and less than 0.5 molecules of cyclic peptide/one molecule of FGFR.)

## 339 (F[Orn](COCH2)VYTFDAHAHS[NMeL]DAALN[hCys]IKKK; thioether 2-19) [compound 339]
[1]
  Evaluation result of reductive stability: B (The residual rate of the cyclic peptide is 70% or more and less than 90%)
[2]
  Evaluation result of binding affinity to FGFR: C (The binding amount is 0.1 molecules of cyclic peptide/one molecule of FGFR or more and less than 0.5 molecules of cyclic peptide/one molecule of FGFR.)

## 328 (A[hCys]VWTFDRHAQEISQALH[Orn](COCH2)VKKK; thioether 2-19) [compound 328]
[1]
  Evaluation result of reductive stability: A (The residual rate of cyclic peptide is 90% or more.)
[2]
  Evaluation result of binding affinity to FGFR: A (The binding amount is 0.7 molecules of the cyclic peptide/one molecule of FGFR or more.)

## 342 (F[Orn](COCH2)VYTFDAHAHSLDAALN[hCys]KKK; thioether 2-19) [compound 342]
[1]
  Evaluation result of reductive stability: B (The residual rate of the cyclic peptide is 70% or more and less than 90%)
[2]
  Evaluation result of binding affinity to FGFR: C (The binding amount is 0.1 molecules of cyclic peptide/one molecule of FGFR or more and less than 0.5 molecules of cyclic peptide/one molecule of FGFR.)

## 332 (AXVWTFDRHAQEISQALHXVKKK; not fully specified; Description of Artificial Sequence: Cyclic peptide) [compound 332]
[1]
  Evaluation result of reductive stability: A (The residual rate of cyclic peptide is 90% or more.)
[2]
  Evaluation result of binding affinity to FGFR: A (The binding amount is 0.7 molecules of the cyclic peptide/one molecule of FGFR or more.)
